In a protein production outcome set (Wang et al. 2014):

Experiment: label from the status in PepcDB records

Sequence	protein production
MASRLGKKRLFLVWSCLVSILPGMAQTEKLIDYVNPFVGTDGYGNVYPGAQIPFGGIQMSPDTDSKYYDAASGYKYNHSTLLGFSLTHLSGTGIPDLGDFLFIPGTGEMKLDPGTREEPEKGYRSRYSHEKEWASPNYYAVELSDYGVKAEMTSGVRSGMFRFTYPQSDKAFIMIDMNHTLWQSCEWANLRMENDSTITGYKLVKGWGPERHIYFTATFSKKLTGLRFMQNKKPVIYNTSRFRSSYEAWGKNLMACISFDTKAGEEVIVKTAISSVSTNGAKNNMAELAGLAFDELKAKGEALWEKELGKYTLTADRKTKRTFYTSAYHAALHPFIFQDVDGQFRGLDKNIEKAEGFTNYTVFSLWDTYRALHPWFNLVQQEVNADIANSMLAHYDKSVEKMLPVWSFYGNETWCMIGYHAVSVLADMIVKGVKGFDYERAYEAMKTTAMNPNYDCLPEYRMMGYVPFDKEAESVSKTLEYAYDDYCMAQAAKALGKEDDYRYFLNRALSYQTLIDPETKYMRGKDSQGNWRTPFTPVAYQGPGSVNGWGDITEGFTVQYTWYVPQDVQGYINEAGENWFRNRLDELFTVELPDDIPGAHDIQGRIGAYWHGNEPCHHVAYLYNYLKEPWKCQKWVRTIADRFYGDTPDALSGNDDCGQMSAWYMFNCIGFYPVAPSSNMYNIGSPCVEAITVRMSNGKVIEMVADNWSPKNVYVKELYVNGKKYDKSYLKYEDIRDGVKLRFVMSSKPNYKRAVSDEAVAPSLSLPGKTMKYQANFSEKKKSGNPVFKGWYADPEGVVFGDEYWIYPTYSAPYDEQTFMDAFSSKDLVNWTKHPKVISKENISWLRRALWAPAVLSANDKYYLFFGANDIQNNNEVGGIGVATSDSPAGPFKDALGKPLIDKIVHGAQPIDQFVFKDDDGQYYMYYGGWGHCNMVKMAPDLLSIVPFEDGTMYKEVTPENYVEGPFMLKRNGKYYFMWSEGGWGLPNYSVAYSISDSPFGPFKRVGKILEQDLSVATGAGHHSVIKGAGEDEWYIVYHRRPLGETAANSRATCIDRMYFDENGYIKPVKMTFEGVLPSPLDSTK	failed
MKFFGEIAERAGVPSVMGEILAGILFGALFLDVETGIITFFAQLGSIFLLFTAGYKEVSLRDLRPAVLVAFIPTLTQLVFAFAFGFMLGKIFNFTFLQSLFMAVALSPTAIGVVIRILIDLNYLSSRPGLVMLSSAVLDDIIAISLLSLIVTFARFNRAPSALAVLTISGKILLFLLIMYILGKYFFPRLFVHAQKMHAKEAVFSLVVMTALFSSYLAELFELHATIGAFIGGMLISEIPLAKIPDVQSKVEGLAYGILIPLFFAFIGYSIDLYALVKAGIFVPVVTLLALSGKLIGGFIGSKAIGFNFCESLAFGAGVMPRAGIELVMLTIGRGIGIIGEEIFSAMVFMVIVSILISPSALKFAIQAERKNKTGNELKVG	failed
MFMYTEFRSQLLAGAGTSAAGQSARMAVLAGDGATGVQVSCVVPGLNEAANLRVLVPALRACLEQWCASWEIIVVDDGSTDDTAELMAQWSAVEGIRYVQLSRNFGKEAALTAGLEAADGDAVICLDADMQHPPELIGDMLAAWRNGADMVYAVRRQRDDEPWFKRVGARAFYRLLSTARGVEVPPHAGDFRLMDRRVVEALVALPERTRFMKGLYAWVGFKSQAVPYTPQARRHGASHFSAWKLFRLACDGLTAFTTWPLRLVSLIGVLFALLSLSYGGYLVADYLISGNAVSGWTTIVTALLFFAGINLISLGVVGEYVARIFDEVKGRPLFIARQRRGRAKRAAKARSQ	failed
MDFFAIDPIGLPHTSLIFYLSSLLIALLLVFLTFQAYRLKSHRYFFLFLQLSQVIGLYTWYVLRGFPLDEALPLYHCRIAMLAIFFLPDRNKFKQLFMVLGIGGTFLALLSPDLYPFRLWHVANVSFYFGHYALLVNGLIYLLRFYDASQLRLLSVVRYLATVNFLLLLVSLATKGNYGFVMDIPVIHTRHLLLNFVIVTSGLTFMVKITEYFYLKFGEAQQLALAFSKEK	failed
MQGGMMKQLVVAGFFLLLLTSPLSALDVDTYRSSQKQFNTEDKAEQGDAQAQFELGLKYEKGDGVNKDLKKAIYWYQKAADQGQAEAQNNLGVLYLKGEGVPQNSQQAMYWFKKASEQGLAIGQNNIGILYENGLGVKKDPGQAFIWYQKAAEGGNSDGQYNLAVMYMYGNGIPKDIKKAIHWYIKAAEQGDLDAQNNLGVLYERGEEVPRDLKAAISWYTRAANEGSLIAQTNLGVLYMTGDPSIQDGKKAIYWYEKAAAQGGEKAQNNLGYIYEQGIGTEKDMKKAIYWYEKAAENGFTLAQNNLGVLYSNDGELQDYKKAYLWFKKAADQGFAEAQNNLGLMYMKGNGLSVNYHEAVLWYKRAAEQGLPLAQHNLAIMYMKGLGIKKDNKLAIKWYQKAAEKGLDLAQNNLAVMYIRGEGVKRDFKKAMYWYQKAAEQGLDLAQINLGIMYLDGMGVNKDFAKAKYWIGKAKDSGSQDALTIWNKNKLWKYQ	failed
PKIAGIDLGTTYSSIGIYHAVTGETIILPDDLGKKSVPSVVAFLPNGTVLIGTRATEQQEHNPKRTIYDAKRFIGRNFEKNNKDFLSDQKRYPFKINLDSEGKAFFEIPLDSGTKNVYPEEIGSLIIGYLKSAAAKHLGVTLGQVVISCPAEFNEKQRNFTAKAAEIAEMEVRRVISEPTAAALAYGLHKKQGVENVVVVDLGGGTLDVSVLWLQGGVFVTQAMAGNNRLGGQDFNDRVQKHLISKIAEKFGKTIDNKEDIQQIRMEVEKGKIRLTNVPSTTISLNLKTVGKWNYELTRDEFETLNGDLLKAIELPITAALADANLDTADVDEIVLVGGSTQVPAVRKIVGRFFKKSANYGVDPELAVVTGASVQAGVIGGGWPLQVAAMELPAKRRKRHFFTEEQKENEKDRTISEL	not failed
MGRRFDHLGDVEAFIIVAEKGSMTEAAVALATTASVLSRAITRLETRLGAQLMRRTTRRLNLTDEGRAYLEQARAAFSMIDDAERAIQGPTGASLTGHVRISVPTTYGHHRLPAMLERFMQAYPEVQIELSITNRNVDLVAEGYDLAIRLGPLPDSGLVARKLEDASLRLVAAPHYLERAGMPQDVEDLAEHQCLPFVMPSTGRCAPWLFHVDGRDLDWTPPGRIQVFDDVLGVVSLAESGLGICQIYDFIIRDRVKEGRLVEVLDHAQGRFRPFSLIFAPHRRLSAATRTLIDFLVEK	failed
MTQLFPGPIVRTPGLAELDARARDIFRRVVESYLETGEPVGSRTISKGGVALSPASIRNTMQDLAQLGLLDAPHTSAGRMPTHAGLRMFVDGFLEVGDVAEQEKRAIEARLAVKGRSFEEALAEASSILSGLAGGAGIVVTPVREGGVKHVEFVPLGGGQVLAVMVFEDGQVENRLMRQAPGVTPSALQEASNFLNARLRGRTLTEARTEMGGELDAARRQLNETAARLVEDGLAAWSGGEGDARSLIVRGQANLLADARAREDIDRVRQLFDDLSRRAQLIGLLDDVRDAEGVRIYIGAETRLFSLSGSSVIAAPYMTGRQKVLGAIGVIGPARLNYARVIPLVDYTARVLGRMMDG	failed
MISYIQTKIHHINFLHDSLFKNAFFLMLSSISTAGFGFIFWFLAAKFYSASDVGIATGIMSSMTLIVNLSRFGLDYSIIRFFPTHDKCKVFSTSTVISTLIALIFGLIFISGINSFSPELSFLRSPLYTLFYFISLTSSSVIFMAGIFFVAIREAEFQLYLNLIVGSRVLFVILFISLGAIGIFYAVGASFFIAFLISLVLILKSGTDLKLKIDRKFLTDSFNFSAGNFLTGLFMTVPNTLLPIMILNMHLVEQAAYYYIVFGIVSLLFMIPESISTSLFVEGSNGQSLKKTVIQSLVIIFLLLTPIALFFYLYGSLILGFIGQDYVAGGSGVFRLMIFASFFVVVNNVYFAIKRIQKDTKEITLLSGIIFILLIGLAFLLIPVLGIEGIGYAWIISYGTGALIILIQVFRKARFQNLLIKAM	failed
MLLGVIPVLAILLLGFNIHLLVKERRYKKSWISFSMLGLNGLLFVAFTFFLLVYMAGFVTITTIPPFVYWFLIMLGFIIEGMSLYKKYVPGQMTAAAIHLFVVLPTIFSIGIVLLLVAIIELIVAMMNGTGGHPVPRNKQTTTP	failed
MPSTVSSSRLGLAGLCILLAGQLLPMIDFSIVNVALDALAHSLGASETELELIVAVYGVAFAVCLAMGGRLGDNYGRRRLFVLGVALFAVASLLCGLAGSVWLLLVARALQGVGAALVVPQILATLHVSLSGHAHSRALAAYGAIGGLAFVVGQVLGGFLVSADIGGLGWRSVFLINLPICLGILLCSRRWVPETRAEHAARVDAPGTLLLAALILCLLLPLALGPSLHWSWPCALLLAAAVPLLAWLWRTELRQERRQAWPLLPPSLLRLPSIRFGLLLAILFFACWSGFMFALALALQAGAGLSPVQAGNAFIALGASYFVSALLTARVAARIGPVRLLLLGCVIQMCGLLGLMLTLQRVWPQPGILNLAPATLVIGFGQAFIVSSFFRIGLSEVPAAQAGAGSAMLATVQQASLGLGSALLGAVFAHRLERHGDYLEATQTTLAVEFVLMTLLLGATCLFYLRRVRTVPLRCDSPGN	failed
MKLISQAVKNYLPELSLRQKQTNNIIFITFWSQFSVYALNTVLVLFLTRPLIAQGLGYSQAKAYAFIGVTQATGYLMPILGGYMADNIVGVRRSILLGSIMLACAYLLVMLSGYTISSLGDQLFIIAFAFIPATNSLLMGTASSMVSHIYSDDAIKAKSAMTYYYMAINVGALLATMIAPVLLESRYGPLSVLTLTFIGKSIAALNFAKRYSIYDSVIWGMDKSKFSNQGLLRLVAYIAAIYSLTLYAYTHVYIASTLIGAGCAIGILWFLIKTIMLKGETRSKQMIAVLLIIEAIVFFIIYNQMNSTLVLFAENNSDLSFLWFKISPAQYQMLNPLLILLIGSQLPRFYRFFSRFTIPYQFAAGTILSGIALLVMAFAAQNAINGLVNGNYIALTYILISIAELWVSAIGLSMIGLYCDARAIAFAMGVWYLASSMSNAISGRIAGWVAIPENINSALESLPYYKNYYLIMGISALGLGILMYFVAYYLHKIMKRRGIELA	failed
SLDSINTRIAEELSALPSGRVQPQQVAAAVALLDEGSTVPFIARYRKEVTGSLDDTQLRMLEERLRYLRELEERRGAILASIEEQGKLTPELARDIKLADTKTRLEDLYLPYKQKRRTKGQIALEAGLGALADALFDDPTLVPESEAARFVDAEKGFADVKAVLEGAKYILMERFAEDATLLDKLRVFMKNEATLTARVVPGKEQEGAKFSDYFEHDEPLKSAPSHRALAIFRGRNEGVLSASLKVGEEAPGTLHPCEVMIAQRFGLSNQGRAADKWLAEVVRWTWKVKLYTHLETDLFGELRDGAEDEAISVFARNLHDLLLAAPAGPRATLGLDPGLRTGVKVAVVDATGKLLDTATVYPHAPKNQWDQTLAVLAALCAKHQVELIAIGNGTASRETDKLAGELIKKYPGMKLTKIMVSEAGASVYSASELAAKEFPELDVSLRGAVSIARRLQDPLAELVKIEPKSIGVGQYQHDVSQLKLARSLDAVVEDCVNAVGVDVNTASAALLARISGLNSTLAQNIVAHRDANGAFRTRDELKKVSRLGEKTFEQAAGFLRVMNGDNPLDASAVHPETYPLVQRIAADTERDIRSLIGDSAFLKRLDPKKFTDETFGLPTVTDILKELDKPGRDPRPEFKTAEFQEGVESLKDLKPGMVLEGVVTNVTNFGAFVDIGVHQDGLVHISALSEKFVKDPYEVVKAGDIVKVKVMEVDIPRNRVGLSMRMSDTPGEKVEGQRGGRPTGSGQPRQERGAPRGQSAPPANNAMAALFANAKQLKKK	not failed
MTTFNYTNILTQAVDELSESQSYKGLFHQHKDGDPLPSAKSLYKIVELARAIIFPGYFGNSTVNSHTINYHIGVNVETLFGLLTEQILAGLCFGQENSKNATDDNEPCRETASLLAARFISKLPELRRILATDVEAAYYGDPAATCFGEIISCYPAIRAISNYRIAHELLILGVPLIPRFITEMAHSETGIDIHPGAQIGHHFTIDHGTGVVIGATSIIGNNVKLYQGVTLGAKSFPLDNNGNPIKGIPRHPILEDDVIVYSNATILGRVTIGKGATVGGNIWVTENVPAGSRIVQRKNKDELEHHHHHH	not failed
MGYLIGGDIISSSPFTKIFYGSCRKIAVFIFSVLSLTIISGILMYFIEGETGGFTSPSLSIYWAIATLLTVGYGDVVLQTSVGRAMASFVSVLGLSIIVVPIFIVIAEIFGLLSRTFSW	failed
